The target of one series is T1, ProQ NTD (FinO domain) (Escherichia coli, UniProt P45577 1-130).
T1 sequence: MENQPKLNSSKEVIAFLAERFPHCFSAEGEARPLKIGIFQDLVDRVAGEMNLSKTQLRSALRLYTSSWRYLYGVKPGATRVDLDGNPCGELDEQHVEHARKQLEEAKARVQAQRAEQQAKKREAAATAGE
Briefly: EMSA. On the technique in general: Mobility shift assays separate free from complexed probe on a gel.

The next series has as its target Hfq (Escherichia coli, UniProt P0A6X3 1-102). Briefly: filter binding.
The target of the next series is T2, ProQ full-length (Escherichia coli, UniProt P45577 1-232).
T2 sequence: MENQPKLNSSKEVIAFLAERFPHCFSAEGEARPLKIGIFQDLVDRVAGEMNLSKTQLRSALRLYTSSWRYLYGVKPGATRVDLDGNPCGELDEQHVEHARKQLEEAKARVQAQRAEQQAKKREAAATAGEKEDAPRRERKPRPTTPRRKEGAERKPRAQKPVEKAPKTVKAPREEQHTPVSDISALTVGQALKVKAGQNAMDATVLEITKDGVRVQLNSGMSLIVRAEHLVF
Briefly: EMSA.

Hfq, sequence (P0A6X3 whole entry): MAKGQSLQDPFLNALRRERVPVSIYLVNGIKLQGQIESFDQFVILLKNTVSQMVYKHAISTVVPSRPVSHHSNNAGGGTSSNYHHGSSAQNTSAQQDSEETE

B1: malM-3'-6U (structured_RNA)
RNA: GCUUUAUCAGCAGUGUAAAAGGCAAGGGGUAAUUACGCCCCACAGUGCUGAUUUUGCAACAACUGGUGCGUCUCCUGGCGCACCUUUUUU
As a reminder, the Kd is the free concentration of one partner at which half of the binding sites on the other are occupied at equilibrium, for simple one-to-one binding. Lower therefore signals a tighter complex. B1 gave a Kd with ProQ NTD (FinO domain) of 7.8 ± 1.2 nM.

B2: cspE81-3' (structured_RNA)
RNA: GGCCCUUCUGCUGCAAACGUAAUCGCUCUGUAAGAUACGUCAGCAAGAAUUCAAAACCCGCUUAAUCAGCGGGUUUUUUUU
B2: the Kd with ProQ NTD (FinO domain) turned out to be 7.6 ± 4.5 nM; with Hfq, 47 ± 11 nM.

B3: cspE81-3'-AtoU (structured_RNA)
RNA: GGCCCUUCUGCUGCAAACGUAAUCGCUCUGUAAGAUACGUCAGCAAGAAUUCUUUUCCCGCUUAAUCAGCGGGUUUUUUUU
In the series with ProQ NTD (FinO domain), B3 registered a Kd of 17 ± 4.6 nM.

B4: malM-3'-bulge (structured_RNA)
RNA: GCUUUAUCAGCAGUGUAAAAGGCAAGGGGUAAUUACGCCCCACAGUGCUGAUUUUGCAACAACUGGUGAAACGUCUCCUGGCGCACCUUUUUUU
Take B4: binding with ProQ NTD (FinO domain) was characterised by a dissociation constant (Kd) of 9 ± 2.5 nM.

B5: malM-3'-5U (structured_RNA)
RNA: GCUUUAUCAGCAGUGUAAAAGGCAAGGGGUAAUUACGCCCCACAGUGCUGAUUUUGCAACAACUGGUGCGUCUCCUGGCGCACCUUUUU
With B5, the affinity with ProQ NTD (FinO domain), expressed as Kd, was 9.7 ± 1.5 nM.

B6: malM-3'-AA (structured_RNA)
RNA: GCUUUAUCAGCAGUGUAAAAGGCAAGGGGUAAUUACGCCCCACAGUGCUGAUUUUGCAACAACUGGUAAGUCUCCUGGCAAACCUUUUUUU
As to B6, binding with ProQ NTD (FinO domain) was characterised by a dissociation constant (Kd) of 6.6 ± 1.4 nM.

B7: malM-3'-UU (structured_RNA)
RNA: GCUUUAUCAGCAGUGUAAAAGGCAAGGGGUAAUUACGCCCCACAGUGCUGAUUUUGCAACAACUGGUUUGUCUCCUGGCUUACCUUUUUUU
Molecule B7 returned a Kd in the series with ProQ NTD (FinO domain) of 8.7 ± 2.1 nM.

B8: malM-3' (structured_RNA)
RNA: GCUUUAUCAGCAGUGUAAAAGGCAAGGGGUAAUUACGCCCCACAGUGCUGAUUUUGCAACAACUGGUGCGUCUCCUGGCGCACCUUUUUUU
In the case of B8, the Kd with ProQ NTD (FinO domain) was 12 ± 4.8 nM; with ProQ full-length it was 12 ± 5.3 nM; in the series with Hfq it was 22 ± 7 nM.

B9: malM-3'-AtoU (structured_RNA)
RNA: GCUUUAUCAGCAGUGUAAAAGGCAAGGGGUAAUUACGCCCCACAGUGCUGAUUUUGCUUCUUCUGGUGCGUCUCCUGGCGCACCUUUUUUU
Molecule B9 yielded a Kd with ProQ NTD (FinO domain) of 5 ± 1.8 nM.

B10: cspE-3' (structured_RNA)
RNA: GUAAGAUACGUCAGCAAGAAUUCAAAACCCGCUUAAUCAGCGGGUUUUUUUU
In the case of B10, the Kd in the series with ProQ NTD (FinO domain) was 4.5 ± 1.5 nM; in the series with ProQ full-length it was 13 ± 4.5 nM.

B11: cspE-3'-AtoU (structured_RNA)
RNA: GUAAGAUACGUCAGCAAGAAUUCUUUUCCCGCUUAAUCAGCGGGUUUUUUUU
Turning to B11, the Kd with ProQ NTD (FinO domain) was determined as 100 ± 51 nM; in the series with Hfq, 1.7 ± 0.88 nM.

B12: lpp-5'-mut (structured_RNA)
RNA: GCUACAUGGAGAUUAACUCAAUCUAGAGGGUAUUAAUAAUGAAAGCUACUAAACUGGUACUGGGCGCGGUAAUCCCGCGCCCUUUU
For the molecule B12, binding with ProQ full-length was characterised by a dissociation constant (Kd) of 3 ± 1.3 nM.

B13: gapA-3'-AtoU (structured_RNA)
RNA: GGACCUGAUCGCUCACAUCUCCAAAUAAGUUGAGAUGACACUGUGAUCUUUUUUGAGCGACUUCGGUCGCUCUUUUUUUU
In the case of B13, binding with ProQ NTD (FinO domain) was put at a Kd of 18 nM.

B14: malM-3'-4U (structured_RNA)
RNA: GCUUUAUCAGCAGUGUAAAAGGCAAGGGGUAAUUACGCCCCACAGUGCUGAUUUUGCAACAACUGGUGCGUCUCCUGGCGCACCUUUU
In the series with ProQ NTD (FinO domain), B14 came in with a Kd of 27 ± 11 nM.

B15: hupB-3'-RtoU (structured_RNA)
RNA: GGUAAACUAAGCGUUGUCCCCAGUGGGGAUGUGACGAAGUUCUUUGGCGCAUCUACUGAUGUGCCUUUUUU
With B15, the figures for the Kd with ProQ NTD (FinO domain) and with Hfq were 29 ± 7.2 nM and 1.9 ± 0.75 nM, respectively.

B16: hupA-5'-mut (structured_RNA)
RNA: GCGAAAAAAAGUGGCUAUCGGUGCGUGUAUGCAGGAGAGUGCUAUUCUGGCAUUUCCGUCGCACUCGAUGCUUAGCAAGCGAUAAACACAUCGUAAGGAUAACUUACGUUUU
Take B16: the Kd was 16 ± 4.7 nM with ProQ NTD (FinO domain) and 14 ± 8 nM with ProQ full-length.

B17: infA-3'-AtoU (structured_RNA)
RNA: GUCGCUGAUUGUUUUACCGCCUGAUGGGCGAAGAGAAAGAACGAGUUUUUGGUCGGUUUAACCGGCCUUUUUAU
As to B17, the Kd in the series with ProQ NTD (FinO domain) was 32 ± 13 nM; with Hfq it was 1.2 ± 0.55 nM.

The record behind these values is PMC7367173.
